Results from the supplement of paper PMC10126150.
± gives the standard deviation of the averaged measurements.

System: ATP
Test: switch fluorescence ratio, 500 uM ATP over buffer (Cy3 cluster intensity, sum of 5 cycles each) (fold (ratio)); higher = stronger signal-on switching upon ATP binding; sequences stand for … in TCGTCGGCAGCGTCAGATGTGTATAAGAGACAGTTTTTTTTTTTTTTTTTTTTTTTTT…TC
Conditions: aptamer strand: ATP DNA aptamer (quencher-CACCTGGGGGAGTATTGCGGAGGAAGG + anchor), 100 nM annealed; ATP concentration: 500 uM
In short: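 Values give the fluorescence ratio for each switch-domain sequence, averaged from per-cluster ratios of summed target-cycle to summed buffer-cycle Cy3 intensity. The Cy3-labelled switching-strand clusters sat on a modified Illumina MiSeq flow-cell, were annealed to 100 nM quencher-labelled ATP aptamer, and were imaged in selection buffer, then after 15 min with 500 uM ATP at 22 °C. Five cycles ran with NaOH stripping and re-annealing between them, and clusters outside 100-1000 RFU were excluded.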
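Note: ATP exposure 15 min at 22 °C before imaging.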

Sequence	switch fluorescence ratio
AAAGGAGGAA	0.989 ± 0.019
AAAGGAGGGC	0.968 ± 0.067
AAAGGAGTTT	1.01 ± 0.072
AAAGGATGAG	0.979 ± 0.019
AAAGGATGAT	0.9978 ± 0.0031
AAAGGCATGT	1.04 ± 0.017
AAAGGCGTAT	1.008 ± 0.0036
AAAGGCGTCA	1.01 ± 0.016
AAAGGCGTTA	0.9971 ± 0.0062
AAAGGGAAAT	0.975 ± 0.037
AAAGGGAACC	1.017 ± 0.0037
AAAGGGATAT	0.975 ± 0.049
AAAGGGCCTT	1.003 ± 0.0024
AAAGGGCGAC	0.973 ± 0.014
AAAGGGGATG	1.01 ± 0.016
AAAGGGGGAT	1 ± 0.023
AAAGGGGTAA	0.982 ± 0.02
AAAGGGGTAC	1.04 ± 0.016
AAAGGGGTGC	1.05 ± 0.048
AAAGGGTAAT	0.984 ± 0.018
AAAGGGTAGT	0.9813 ± 0.0014
AAAGGTAATC	1.01 ± 0.023
AAAGGTATTC	1 ± 0.02

Sequence	switch fluorescence ratio
AAAGGTGATA	1.03 ± 0.037
AAAGGTGGCA	1 ± 0.017
AAAGGTGGGG	1.001 ± 0.01
AAAGGTGTGT	1.04 ± 0.073
AAAGGTTAAA	0.99 ± 0.018
AAAGGTTGCT	1.007 ± 0.01
AAAGGTTGGG	0.992 ± 0.044
AAAGGTTTTT	0.988 ± 0.016
AAAGTAAGCC	0.984 ± 0.018
AAAGTACCCG	1.07 ± 0.04
AAAGTAGGTT	0.991 ± 0.023
AAAGTATATA	1.02 ± 0.04
AAAGTCTATT	0.99 ± 0.02
AAAGTGCCCG	0.979 ± 0.022
AAAGTGGCCC	0.997 ± 0.018
AAAGTGGGCC	0.9593 ± 0.0049
AAAGTGGTCG	1.1 ± 0.039
AAAGTGGTCT	1 ± 0.015
AAAGTGTAAA	1.08 ± 0.058
AAAGTGTCGT	0.973 ± 0.028
AAAGTGTGCG	1.01 ± 0.023
AAAGTTAGTT	1.03 ± 0.019
AAAGTTATAT	1.022 ± 0.0028

Sequence	switch fluorescence ratio
AAAGTTTGTT	1.025 ± 0.007
AAAGTTTTAA	1.02 ± 0.018
AAATAAACA	0.999 ± 0.023
AAATAACGGT	1.16 ± 0.21
AAATAACTAC	1.08 ± 0.015
AAATAATTGG	1.09 ± 0.013
AAATAATTTA	0.955 ± 0.038
AAATACCGCA	1.48 ± 0.17
AAATACGCTC	1.25 ± 0.2
AAATACTTGC	1.14 ± 0.074
AAATAGACCG	1 ± 0.0091
AAATAGGTGG	0.996 ± 0.024
AAATAGTCTG	0.972 ± 0.017
AAATAGTGTG	1 ± 0.033
AAATATAGTG	0.991 ± 0.025
AAATATATAT	0.994 ± 0.044
AAATATATTC	1.02 ± 0.012
AAATATGGGC	0.961 ± 0.022
AAATATTATA	1.02 ± 0.031
AAATATTGAG	1 ± 0.015
AAATATTGGT	1.01 ± 0.03
AAATATTTCC	1.09 ± 0.06
AAATCAAACG	1.05 ± 0.018

Sequence	switch fluorescence ratio
AAATCAACCC	0.9885 ± 0.0083
AAATCAGGTT	0.972 ± 0.016
AAATCATTAT	1.01 ± 0.019
AAATCATTGG	1.01 ± 0.026
AAATCCAATA	1.0106 ± 0.0007
AAATCCCGCT	1.0834 ± 0.00016
AAATCCCGTA	1.01 ± 0.052
AAATCCGCTT	1.27 ± 0.26
AAATCGCGGA	1.05 ± 0.011
AAATCTTAAT	1.002 ± 0.007
AAATGAAAGT	0.995 ± 0.015
AAATGAATTT	0.976 ± 0.014
AAATGAGGGG	0.992 ± 0.03
AAATGCTACG	1.01 ± 0.029
AAATGCTTAG	0.995 ± 0.011
AAATGGAGTA	1.01 ± 0.007
AAATGGGAGA	0.992 ± 0.026
AAATGGGGTC	0.998 ± 0.023
AAATGGGTGA	1.05 ± 0.017
AAATGGGTTG	1 ± 0.01
AAATGGTAAT	0.978 ± 0.036
AAATGTGCGA	0.977 ± 0.019
AAATGTGGCA	0.9862 ± 0.002

Sequence	switch fluorescence ratio
AAATGTGTGG	0.977 ± 0.019
AAATGTTCTG	0.948 ± 0.021
AAATGTTTTG	1.03 ± 0.026
AAATTAAGGG	1.02 ± 0.03
AAATTAATCA	1.04 ± 0.094
AAATTACAGT	0.99493 ± 0.00079
AAATTATGCG	0.99 ± 0.023
AAATTATTCG	1.03 ± 0.045
AAATTCACTT	0.997 ± 0.021
AAATTCCGTG	0.978 ± 0.043
AAATTCTTCT	1.04 ± 0.04
AAATTGAAAT	1.01 ± 0.031
AAATTGATGG	1 ± 0.084
AAATTGCTGT	1.012 ± 0.0069
AAATTGGCAG	1.06 ± 0.16
AAATTGTGTG	0.999 ± 0.0037
AAATTGTTTG	0.989 ± 0.041
AAATTTGCCA	0.9566 ± 0.0066
AAATTTGGTA	1.04 ± 0.021
AAATTTTACT	1.02 ± 0.031
AAATTTTGGC	1.1 ± 0.042
AACAACAGGA	1.03 ± 0.045
AACAACATAG	1.02 ± 0.036

Sequence	switch fluorescence ratio
AACAAGCTAT	1.03 ± 0.055
AACAAGGGCG	1.03 ± 0.018
AACAGAGGGG	1.01 ± 0.018
AACAGAGTAG	0.976 ± 0.028
AACAGATGGA	1.16 ± 0.3
AACAGGCGGG	0.993 ± 0.027
AACAGGGAAG	1.02 ± 0.012
AACAGGGGGA	1.09 ± 0.14
AACAGGGTGG	1.016 ± 0.0021
AACAGGGTTT	1.01 ± 0.075
AACAGTATTT	1.04 ± 0.011
AACAGTGAGC	1.039 ± 0.0056
AACAGTGTTT	0.971 ± 0.065
AACATACAGG	1.28 ± 0.019
AACATAGGTC	1.06 ± 0.04
AACATAGTCA	1.006 ± 0.0024
AACATATTGG	1.01 ± 0.073
AACATGGGTT	1.01 ± 0.031
AACATGTCCT	1.04 ± 0.031
AACATTCGTT	1.034 ± 0.0042
AACATTGGTC	1.01 ± 0.017
AACCACAGGA	1.057 ± 0.0019
AACCACTTTA	1.06 ± 0.021

Sequence	switch fluorescence ratio
AACCAGAAGG	1.01 ± 0.035
AACCAGTGGC	1.06 ± 0.079
AACCAGTTTT	0.98 ± 0.027
AACCATCGGG	0.976 ± 0.013
AACCCATTTG	1.29 ± 0.48
AACCCGTTTC	1.09 ± 0.07
AACCGAACGA	2.09 ± 0.072
AACCGCGCTT	1.18 ± 0.083
AACCGGCTTA	0.999 ± 0.026
AACCGGGGAC	1.31 ± 0.23
AACCGTTTTT	1.05 ± 0.063
AACCTATTAT	0.998 ± 0.019
AACCTCTCAT	1.08 ± 0.011
AACCTGGGGA	1.12 ± 0.19
AACCTGGGGC	1.15 ± 0.044
AACCTGGGGT	1.02 ± 0.0073
AACCTTATCA	1.07 ± 0.02
AACCTTTTGG	1.03 ± 0.048
AACGAGAGGA	0.986 ± 0.012
